Test results from paper PMC13544220, “Glycemic and bodyweight effects of GIPR coding variation reflect differences in surface expression and intrinsic functional impairment” (Science Advances, 2026).
Substitutions are numbered along the chain they refer to. Names may count otherwise.

Tests used:
Type in all cases: cell-based, human
[1] = tested on: wild-type and variant SNAP-GIPR; assay: Surface SNAP-GIPR expression (SNAP-tag labelling) in AD293 cells; details: for AD293 Surface: Fig S3E, mean; for Surface SNAP-GIPR expression: sheet Fig 1C;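 as to all read-outs here: scaled to the experimental average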
In short: (§1)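 Read-out: whole-cell fluorescence of surface-only SNAP label (Alexa Fluor 647, 500 nM, 10 min, RT), wide-field 20X, several FOVs per well. Flat-field corrected, phase-contrast masked, nontransfected-well signal subtracted; normalized to experiment mean or wild-type.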

[2] = tested on: wild-type and variant SNAP-GIPR; assay: Constitutive and agonist-mediated internalization, reversible SNAP-tag labelling, INS-1 cells; set-up: key to Internalisation, GIP-only / Internalisation, Vehicle / Internalisation, +GIP: % internalization: residual fluorescence after Mesna vs pre-Mesna; details: Mean; for +GIP internalisation (100 nM) / GIP-specific internalisation (100 nM) / Constitutive internalisation (100 nM): Fig 4G; for +GIP internalisation (100 nM) / GIP-specific internalisation (100 nM): GIP 100 nM; for Internalisation, +GIP / Internalisation, GIP-only / Internalisation, Vehicle: Fig S4C, INS-1
In short: (§2)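 Percentage internalization is read as the fraction of specific SNAP fluorescence that survives Mesna stripping, compared with the image taken before Mesna. Wells are imaged in TNE buffer at pH 8.6 and again after 10 min.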

[3] = tested on: wild-type and variant SNAP-GIPR; assay: Single-concentration GIP cAMP response by HTRF in INS-1 cells; details: Fig S3E, mean
Description: (§3) All variants were tested in parallel on each occasion to control for transfection efficiency differences between experiments.

[4] = tested on: wild-type and variant SNAP-GIPR; assay: cADDis cAMP imaging in AD293 cells, ensemble, expression-matched and per decile; details: Fig S3F, cADDis, mean;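 also: Ensemble cells as % of IBMX/FSK response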
In short: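 AD293 cells reverse-transfected with wild-type or variant SNAP-GIPR plus cADDis Green Up sensor, variants run in parallel. After 24 h, surface receptor labelled with SNAP-Surface Alexa Fluor 647 (500 nM); single-cell cADDis fluorescence imaged at 37 °C in KRBH, 6 mM glucose, 0.1% BSA. Responses given ensemble, expression-matched by wild-type deciles, or per own decile.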

[5] = tested on: wild-type and variant SNAP-GIPR; assay: Constitutive and agonist-mediated internalization, reversible SNAP-tag labelling, AD293 cells; set-up: key to Internalisation, Vehicle / Internalisation, +GIP / Internalisation, GIP-only: % internalization: residual fluorescence after Mesna vs pre-Mesna; Surface expression: unit not given here; details: Mean; for +GIP internalisation (100 nM) / GIP-specific internalisation (100 nM) / Constitutive internalisation (100 nM) / Surface expression: Fig 4E; for +GIP internalisation (100 nM) / GIP-specific internalisation (100 nM): GIP 100 nM; for Internalisation, +GIP / Internalisation, GIP-only / Internalisation, Vehicle: Fig S4C, AD293
In short: as §2

[6] = tested on: wild-type and variant SNAP-GIPR; assay: Single-concentration GIP cAMP response by HTRF in AD293 cells; details: Fig S3F, HTRF, mean;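 also: ratio to experiment-wide average response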
Description: as §3

[7] = tested on: wild-type and variant SNAP-GIPR; assay: Surface SNAP-GIPR expression (SNAP-tag labelling) in INS-1 cells; details: Fig 4G; Mean
In short: as §1

[8] = column repeated, paired with cAMP 100 nM

B1: R300W (protein, UniProt P48546 22-466, looked up, variant R300W)
Gastric inhibitory …: RAETGSKGQTAGELYQRWERYRRECQETLAAAEPPSGLACNGSFDMYVCWDYAAPNATARASCPWYLPWHHHVAAGFVLRQCGSDGQWGLWRDHTQCENPEKNEAFLDQRLILERLQVMYTVGYSLSLATLLLALLILSLFRRLHCTRNYIHINLFTSFMLRAAAILSRDRLLPRPGPYLGDQALALWNQALAACRTAQIVTQYCVGANYTWLLVEGVYLHSLLVLVGGSEEGHFRYYLLLGWGAPALFVIPWVIVRYLYENTQCWERNEVKAIWWIIWTPILMTILINFLIFIRILGILLSKLRTRQMRCRDYRLRLARSTLTLVPLLGVHEVVFAPVTEEQARGALRFAKLGFEIFLSSFQGFLVSVLYCFINKEVQSEIRRGWHHCRLRRSLGEEQRQLPERAFRALPSGSGPGEVPTSRGLSSGTLPGPGNEASRELESYC
AD293 Surface [1, 8]: 0.7271
AD293 Surface ([1]; paired with cAMP 100 pM): 0.7271
Surface SNAP-GIPR expression ([1]; replicate 1): 0.3062
Surface SNAP-GIPR expression ([1]; replicate 2): 0.3328
Surface SNAP-GIPR expression ([1]; replicate 3): 0.1592
Surface SNAP-GIPR expression ([1]; replicate 4): 0.8304
Surface SNAP-GIPR expression ([1]; replicate 5): 0.6683
Surface SNAP-GIPR expression ([1]; replicate 6): 0.6889
Surface SNAP-GIPR expression ([1]; replicate 7): 0.4744
Surface SNAP-GIPR expression ([1]; replicate 8): 0.7417
Surface SNAP-GIPR expression ([1]; replicate 9): 0.7319
Surface SNAP-GIPR expression ([1]; replicate 10): 0.4888
Surface SNAP-GIPR expression ([1]; replicate 11): 0.5692
Surface SNAP-GIPR expression ([1]; replicate 12): 0.5524
Surface SNAP-GIPR expression ([1]; replicate 13): 0.6029
Surface SNAP-GIPR expression ([1]; replicate 14): 0.8734
Surface SNAP-GIPR expression ([1]; replicate 15): 0.6318
Surface SNAP-GIPR expression ([1]; replicate 16): 0.7838
Surface SNAP-GIPR expression ([1]; replicate 17): 0.7645
Surface SNAP-GIPR expression ([1]; replicate 18): 0.8288
Surface SNAP-GIPR expression ([1]; replicate 19): 0.8256
Surface SNAP-GIPR expression ([1]; replicate 20): 0.8307
Surface SNAP-GIPR expression ([1]; replicate 21): 0.7929
Surface SNAP-GIPR expression ([1]; replicate 22): 0.7293
Surface SNAP-GIPR expression ([1]; replicate 23): 0.8041
Surface SNAP-GIPR expression ([1]; replicate 24): 0.7665
Surface SNAP-GIPR expression ([1]; replicate 25): 0.8609
Surface SNAP-GIPR expression ([1]; replicate 26): 0.8382
Surface SNAP-GIPR expression ([1]; replicate 27): 0.9176
Surface SNAP-GIPR expression ([1]; replicate 28): 0.9055
Surface SNAP-GIPR expression ([1]; replicate 29): 1.047
Surface SNAP-GIPR expression ([1]; replicate 30): 0.4161
Surface SNAP-GIPR expression ([1]; replicate 31): 0.3148
Surface SNAP-GIPR expression ([1]; replicate 32): 0.4777
Surface SNAP-GIPR expression ([1]; replicate 33): 0.3827
Surface SNAP-GIPR expression ([1]; replicate 34): 0.923
Surface SNAP-GIPR expression ([1]; replicate 35): 0.8683
Surface SNAP-GIPR expression ([1]; replicate 36): 0.9333
Surface SNAP-GIPR expression ([1]; replicate 37): 0.8174
Surface SNAP-GIPR expression ([1]; replicate 38): 1.012
Surface SNAP-GIPR expression ([1]; replicate 39): 1.271
Surface SNAP-GIPR expression ([1]; replicate 40): 1.105
Surface SNAP-GIPR expression ([1]; replicate 41): 0.9446
+GIP internalisation (100 nM) [2]: 0.4496
GIP-specific internalisation (100 nM) [2]: 0.1127
Constitutive internalisation (100 nM) [2]: 0.3368
Internalisation, +GIP [2]: 49.27
Internalisation, GIP-only [2]: 12.1983
Internalisation, Vehicle [2]: 37.0717
INS-1 cAMP (100 nM) [3]: 1.326
AD293 100 pM cADDis [4]: 30.0031
AD293 100 nM cADDis [4]: 37.61
+GIP internalisation (100 nM) [5]: 0.5841
GIP-specific internalisation (100 nM) [5]: 0.1667
Constitutive internalisation (100 nM) [5]: 0.4174
Surface expression [5]: 1.0064
Internalisation, +GIP [5]: 57.8459
Internalisation, GIP-only [5]: 16.6116
Internalisation, Vehicle [5]: 41.2342
AD293 100 pM HTRF [6]: 0.5327
AD293 100 nM HTRF [6]: 1.632
Surface expression [7]: 0.9197

B2: R183Q (protein, UniProt P48546 22-466, looked up, variant R183Q)
Gastric inhibitory …: B1 Gastric inhibitory … with R162Q, W279R
AD293 Surface [1, 8]: 0.6425
AD293 Surface ([1]; paired with cAMP 100 pM): 0.6425
Surface SNAP-GIPR expression ([1]; replicate 1): 0.7543
Surface SNAP-GIPR expression ([1]; replicate 2): 1.106
Surface SNAP-GIPR expression ([1]; replicate 3): 0.9536
Surface SNAP-GIPR expression ([1]; replicate 4): 0.232
Surface SNAP-GIPR expression ([1]; replicate 5): 0.7423
Surface SNAP-GIPR expression ([1]; replicate 6): 0.6069
Surface SNAP-GIPR expression ([1]; replicate 7): 1.15
Surface SNAP-GIPR expression ([1]; replicate 8): 0.9044
Surface SNAP-GIPR expression ([1]; replicate 9): 0.5747
Surface SNAP-GIPR expression ([1]; replicate 10): 0.6709
Surface SNAP-GIPR expression ([1]; replicate 11): 0.6959
Surface SNAP-GIPR expression ([1]; replicate 12): 0.6048
Surface SNAP-GIPR expression ([1]; replicate 13): 0.2083
Surface SNAP-GIPR expression ([1]; replicate 14): 0.4922
Surface SNAP-GIPR expression ([1]; replicate 15): 0.6065
Surface SNAP-GIPR expression ([1]; replicate 16): 0.716
Surface SNAP-GIPR expression ([1]; replicate 17): 0.7375
Surface SNAP-GIPR expression ([1]; replicate 18): 0.5932
Surface SNAP-GIPR expression ([1]; replicate 19): 0.8135
Surface SNAP-GIPR expression ([1]; replicate 20): 0.672
Surface SNAP-GIPR expression ([1]; replicate 21): 0.7253
Surface SNAP-GIPR expression ([1]; replicate 22): 0.7101
Surface SNAP-GIPR expression ([1]; replicate 23): 0.6734
Surface SNAP-GIPR expression ([1]; replicate 24): 0.6371
Surface SNAP-GIPR expression ([1]; replicate 25): 0.6035
Surface SNAP-GIPR expression ([1]; replicate 26): 0.6412
Surface SNAP-GIPR expression ([1]; replicate 27): 0.6638
Surface SNAP-GIPR expression ([1]; replicate 28): 0.5579
Surface SNAP-GIPR expression ([1]; replicate 29): 0.6957
Surface SNAP-GIPR expression ([1]; replicate 30): 0.2984
Surface SNAP-GIPR expression ([1]; replicate 31): 0.1821
Surface SNAP-GIPR expression ([1]; replicate 32): 0.3718
Surface SNAP-GIPR expression ([1]; replicate 33): 0.3193
Surface SNAP-GIPR expression ([1]; replicate 34): 0.6173
Surface SNAP-GIPR expression ([1]; replicate 35): 0.7865
Surface SNAP-GIPR expression ([1]; replicate 36): 0.6007
Surface SNAP-GIPR expression ([1]; replicate 37): 0.5904
Surface SNAP-GIPR expression ([1]; replicate 38): 0.7906
Surface SNAP-GIPR expression ([1]; replicate 39): 0.7153
Surface SNAP-GIPR expression ([1]; replicate 40): 0.6916
Surface SNAP-GIPR expression ([1]; replicate 41): 0.6376
+GIP internalisation (100 nM) [2]: 0.3116
GIP-specific internalisation (100 nM) [2]: 0.02961
Constitutive internalisation (100 nM) [2]: 0.282
Internalisation, +GIP [2]: 37.4683
Internalisation, GIP-only [2]: 3.708
Internalisation, Vehicle [2]: 33.76
INS-1 cAMP (100 nM) [3]: 0.04521
AD293 100 pM cADDis [4]: -1.0843
AD293 100 nM cADDis [4]: 18.64
+GIP internalisation (100 nM) [5]: 0.3247
GIP-specific internalisation (100 nM) [5]: 0.02672
Constitutive internalisation (100 nM) [5]: 0.298
Surface expression [5]: 0.6535
Internalisation, +GIP [5]: 49.3267
Internalisation, GIP-only [5]: 3.992
Internalisation, Vehicle [5]: 45.335
AD293 100 pM HTRF [6]: 0.04104
AD293 100 nM HTRF [6]: 0.2411
Surface expression [7]: 0.8445
